# Measured values taken from PMC6834915.
# Biological target: CdiI^Kp342 immunity protein (untagged) (Klebsiella pneumoniae 342)
# Assay: crystal structure
substance,measurement,value
CdiI^Kp342 immunity protein (untagged) (natural protein),stoichiometry N,2
